Paper PMC5574023

Biological target: platelet receptor GPIIbIIIa (αIIbβ3) on human platelets, P08514;P05106
Assay: platelet adhesion to immobilized protein (phosphatase assay)
Details: read off a plot

Substance	response (Absorbance (405 nm)) (parent: est. 0.48)	response (Absorbance (405 nm)) (parent: est. 0.88)	response (Absorbance (405 nm)) (TRAP-activated gel-filtered platelets, 2 × 10^7 per well, 10 μg protein per well, 37°C, 45 min, static, parent: est. 0.88)	response (Absorbance (405 nm)) (non-activated gel-filtered platelets, 2 × 10^7 per well, 10 μg protein per well, 37°C, 45 min, static, parent: est. 0.48)
recombinant PadA-F2 region fragment (from UniProt A8AZP4) N214A; G215A; R216A	0.28	0.72		
recombinant PadA-F2 region fragment (from UniProt A8AZP4) N214A; G215A; R216A; R416A; G417A; T418A; G486A; D487A			0.2	0.49
recombinant PadA-F2 region fragment (from UniProt A8AZP4) R416A; G417A; T418A	0.21	0.8		
recombinant PadA-F2 region fragment (from UniProt A8AZP4) R416A; G417A; T418A; G486A; D487A	0.71	0.44		
recombinant PadA-F2 region fragment (from UniProt A8AZP4) G486A; D487A	0.27	0.87		
